From PMC7955110, “Cryo-EM structure of amyloid fibrils formed by the entire low complexity domain of TDP-43” (Nature Communications, 2021)

Molecular target: the molecule itself
Assay: cryo-EM structure; amyloid fibrils formed at 30 uM protein in 20 mM sodium acetate pH 4.0, 37 °C with rotation, four rounds of sequential seeding (10% w/w sonicated fibrils); helical reconstruction of twisted fibrils, 3.2 Å

B1: TDP-43 low complexity domain (transactive response DNA-binding protein of 43 kDa, C-terminal low-complexity domain) (domain or fragment, UniProt Q13148 267-414, looked up)
chain: NRQLERSGRFGGNPGGFGNQGGFGNSRGGGAGLGNNQGSNMGGGMNFGAFSINPAMMAAAQAALQSSWGMMGMLASQQNQSGPSGNNQNQGNMQREPNQAFGSGNNSYSGSNSGAAIGWGSASNAGSGSGFNGGFGSSMDSKSSGWGM
notes: TDP-43, entire C-terminal low-complexity domain; Wild-type, non-phosphorylated; The assayed form is an amyloid fibril: a single protofilament of stacked subunits with an ordered core of residues 276-414; Five chains were built in the model; also called TDP-43 LCD; LCD; source: Rosetta (DE3) pLysS cells, purified (Ni-NTA in 8 M urea, HPLC on a C4 column), lyophilized
- binding result: binds
